Assays:
human serum albumin [1] = biological target: T1, human serum albumin (human, UniProt P02768 25-609); assay: direct binding ELISA on coated HSA
T1 construct: also called HSA
Protocol: (§1) For the direct binding ELISA method to HSA or BSA, 96-well high binding plates (Corning, product number 3590) were coated with 1 μg/mL recombinant HSA or BSA in 100 μL/well in PBS overnight at 4° C. Plates were then blocked in PBS+0.02% casein solution and washed with PBS+0.05% Tween-20 following standard ELISA protocol. […] Plates were washed with PBS+0.05% Tween-20 following standard ELISA protocol, and goat anti-human IgG-Fc HRP conjugated secondary antibody (Pierce, #31413) diluted to 1:10,000 in assay buffer was added to plates and incubated for 1 hour at room temperature. Next, the plates were washed with PBS+0.05% Tween-20 following standard ELISA protocol, and then TMB substrate (BioFX Laboratories, catalog number TMBW-0100-01) was added to plates.
(§2) Reactions were stopped after approximately 5 minutes by adding 0.18 M ortho-phosphoric acid to each well and absorbance was read at 450 nm. […] For this method, samples diluted to 0.3 mg/mL were dispensed into the sample tray of a MicroCal VP-Capillary DSC with Autosampler (Malvern Instruments, Inc.), equilibrated for 5 minutes at 10° C. and then scanned up to 110° C. at a rate of 100° C. per/hour. A filtering period of 16 seconds was selected. Raw data was baseline corrected and the protein concentration was normalized. Origin Software 7.0 (Origin Lab Corporation, Northampton, MA) was used to fit the data to an MN2-State Model with an appropriate number of transitions.

recombinant mouse TL1A [2] = biological target: T2, recombinant mouse TL1A (mouse, UniProt Q5UBV8 75-252); assay: SPR, antibody injected over captured biotinylated TL1A, 37° C.
T2 construct: biotinylated for SPR capture
T2 chain: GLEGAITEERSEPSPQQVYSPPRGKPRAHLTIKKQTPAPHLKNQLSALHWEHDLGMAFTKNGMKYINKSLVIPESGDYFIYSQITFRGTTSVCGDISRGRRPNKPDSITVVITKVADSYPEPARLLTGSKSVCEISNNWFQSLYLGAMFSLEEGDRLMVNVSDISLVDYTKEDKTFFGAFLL
Protocol: (§3) For these analyses, kinetic assays were conducted at 37° C. using a collection rate of 10 Hz on a Biacore™ T200 instrument (GE Healthcare). […] The association phase was 90 seconds, and the dissociation phases were 1600 seconds over human, cynomolgus monkey and rabbit TL1A and 180 seconds for mouse and rat TL1A.
(§4) In order to determine binding to TL1A, kinetic assays were conducted at 37° C. using a collection rate of 10 Hz on a Biacore™ T200 instrument (GE Healthcare).

[3] = biological target: T3, recombinant cynomolgus monkey TL1A (cynomolgus monkey, UniProt O95150 72-251 (human entry)); assay: as above
T3 construct: biotinylated for SPR capture; also called cyno TL1A
T3 chain: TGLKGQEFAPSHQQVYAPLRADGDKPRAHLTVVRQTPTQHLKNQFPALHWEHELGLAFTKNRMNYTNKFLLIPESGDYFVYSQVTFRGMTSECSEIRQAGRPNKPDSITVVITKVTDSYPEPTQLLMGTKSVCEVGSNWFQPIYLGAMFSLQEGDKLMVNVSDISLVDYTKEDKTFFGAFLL
Protocol: as §3, §4

bovine serum albumin [4] = biological target: T4, bovine serum albumin (bovine, UniProt P02769 25-607); assay: direct binding ELISA on coated BSA
T4 construct: also called BSA
T4 sequence (P02769 25-607 limits assumed): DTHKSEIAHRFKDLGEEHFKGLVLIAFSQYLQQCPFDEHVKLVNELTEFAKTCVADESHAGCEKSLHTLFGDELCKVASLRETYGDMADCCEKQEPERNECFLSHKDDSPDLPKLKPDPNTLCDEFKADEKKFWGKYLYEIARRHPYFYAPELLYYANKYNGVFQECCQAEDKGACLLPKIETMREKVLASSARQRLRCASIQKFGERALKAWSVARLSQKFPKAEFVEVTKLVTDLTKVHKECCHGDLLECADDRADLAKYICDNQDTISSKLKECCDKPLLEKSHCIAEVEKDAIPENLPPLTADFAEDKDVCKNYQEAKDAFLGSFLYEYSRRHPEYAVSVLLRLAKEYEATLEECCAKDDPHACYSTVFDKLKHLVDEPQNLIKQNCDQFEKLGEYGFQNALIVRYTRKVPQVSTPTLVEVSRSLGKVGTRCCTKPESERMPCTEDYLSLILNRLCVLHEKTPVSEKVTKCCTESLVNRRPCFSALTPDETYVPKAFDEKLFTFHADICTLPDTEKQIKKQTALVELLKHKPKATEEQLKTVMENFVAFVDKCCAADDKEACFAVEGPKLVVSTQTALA
Protocol: as §1, §2

recombinant human TL1A [5] = biological target: T5, recombinant human TL1A (human, UniProt O95150 71-251); assay: cell-based or functional assay
T5 chain: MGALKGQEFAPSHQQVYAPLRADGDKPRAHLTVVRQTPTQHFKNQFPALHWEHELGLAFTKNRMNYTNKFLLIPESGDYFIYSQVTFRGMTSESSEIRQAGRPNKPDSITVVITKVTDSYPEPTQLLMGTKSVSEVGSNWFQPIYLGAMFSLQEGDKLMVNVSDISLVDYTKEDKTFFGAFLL

recombinant human TL1A [6] = biological target: T6, recombinant human TL1A (human, UniProt O95150 71-251); assay: SPR, recombinant human TL1A
T6 construct: Homotrimeric cytokine; biotinylated with Sulfo-NHS-biotin where captured for SPR, coated unlabelled in ELISA, soluble in bioassays; also called TNFSF15
T6 chain: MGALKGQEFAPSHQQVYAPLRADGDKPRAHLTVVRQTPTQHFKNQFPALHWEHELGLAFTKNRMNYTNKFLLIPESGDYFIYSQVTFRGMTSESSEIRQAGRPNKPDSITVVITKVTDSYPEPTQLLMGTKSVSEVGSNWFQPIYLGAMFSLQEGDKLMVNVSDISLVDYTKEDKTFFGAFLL

recombinant rat TL1A [7] = biological target: T7, recombinant rat TL1A (rat, UniProt Q8K3Y7 76-252); assay: SPR 37 C, biotinylated TL1A captured, antibody injected; approximate KD
T7 construct: biotinylated with Sulfo-NHS-biotin and captured for SPR
T7 sequence: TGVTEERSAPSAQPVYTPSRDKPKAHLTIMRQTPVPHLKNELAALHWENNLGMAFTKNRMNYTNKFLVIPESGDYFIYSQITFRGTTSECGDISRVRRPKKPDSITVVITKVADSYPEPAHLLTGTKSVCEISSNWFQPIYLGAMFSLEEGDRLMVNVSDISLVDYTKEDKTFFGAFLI
Protocol: as §3

human serum albumin [8] = biological target: T1, human serum albumin; assay: direct binding ELISA on plate-coated HSA (1 ug/mL), anti-human IgG-Fc HRP, OD450
Protocol: as §1, §2

recombinant human TL1A [9] = biological target: T6, recombinant human TL1A; assay: cell-based or functional assay
recombinant human TL1A [10] = biological target: T6, recombinant human TL1A; assay: SPR 37 C, biotinylated TL1A captured, antibody injected
Protocol: as §3

recombinant mouse TL1A [11] = biological target: T8, recombinant mouse TL1A (mouse, UniProt Q5UBV8 75-252); assay: as above
T8 construct: biotinylated with Sulfo-NHS-biotin and captured for SPR
T8 chain: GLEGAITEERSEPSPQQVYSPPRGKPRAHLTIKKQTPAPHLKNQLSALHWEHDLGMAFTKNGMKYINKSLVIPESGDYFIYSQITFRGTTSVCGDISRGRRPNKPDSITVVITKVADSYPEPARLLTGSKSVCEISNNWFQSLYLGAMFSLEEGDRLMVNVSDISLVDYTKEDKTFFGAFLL
Protocol: as §3

[12] = biological target: T9, recombinant cynomolgus monkey TL1A (cynomolgus monkey, UniProt O95150 72-251 (human entry)); assay: as above
T9 construct: biotinylated with Sulfo-NHS-biotin and captured for SPR
T9 chain: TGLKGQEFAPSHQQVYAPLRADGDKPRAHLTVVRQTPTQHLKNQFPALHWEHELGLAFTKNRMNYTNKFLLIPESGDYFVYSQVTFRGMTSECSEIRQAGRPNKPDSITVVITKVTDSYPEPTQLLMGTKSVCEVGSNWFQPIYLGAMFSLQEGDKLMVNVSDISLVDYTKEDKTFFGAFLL
Protocol: as §3

recombinant rat TL1A [13] = biological target: T7, recombinant rat TL1A; assay: as above
Protocol: as §3

bovine serum albumin [14] = biological target: T4, bovine serum albumin; assay: direct binding ELISA on plate-coated BSA (1 ug/mL), anti-human IgG-Fc HRP, OD450
Protocol: as §1, §2

recombinant human TL1A [15] = biological target: T6, recombinant human TL1A; assay: cell-based or functional assay
[16] = biological target: T10, full-length human TL1A on CHO-K1 cells (human, UniProt O95150 1-251); assay: flow cytometry, CHO-K1 cells expressing human TL1A, 133 nM; cells, antibody at 133 nM
T10 construct: whole, on cells; also called cells over-expressing human TL1A
T10 sequence (looked up): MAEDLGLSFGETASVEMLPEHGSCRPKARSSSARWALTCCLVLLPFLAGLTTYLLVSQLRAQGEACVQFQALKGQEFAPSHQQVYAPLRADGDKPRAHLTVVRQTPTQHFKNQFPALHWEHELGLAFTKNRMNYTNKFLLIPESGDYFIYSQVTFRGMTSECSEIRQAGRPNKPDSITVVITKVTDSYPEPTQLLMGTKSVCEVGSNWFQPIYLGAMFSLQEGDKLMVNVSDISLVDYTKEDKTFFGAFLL

recombinant human TL1A [17] = biological target: T6, recombinant human TL1A; assay: competition ELISA, coated TL1A, competitor bio-TL1A-0002
recombinant human TL1A [18] = biological target: T5, recombinant human TL1A; assay: ELISA, biotinylated antibody on coated recombinant TL1A
recombinant human TL1A [19] = biological target: T5, recombinant human TL1A; assay: competition ELISA vs bio-TL1A-0002
recombinant human TL1A [20] = biological target: T5, recombinant human TL1A; assay: competition ELISA vs bio-TL1A-0002
Protocol: For this competition ELISA assay procedure, 96-well high binding plates (Corning, product number 3590) were coated with 1 μg/mL recombinant TL1A in 100 μL/well in Phospate Buffered Saline (PBS) overnight at 4° C. Plates were then blocked in PBS+0.02% casein solution and washed with PBS+0.05% Tween-20 following standard ELISA protocol. […] Plates were washed with PBS+0.05% Tween-20 following standard ELISA protocol, and Streptavidin-HRP (Southern Biotech, product number 7100-05) diluted to 1:10,000 in assay buffer was added to plates and incubated for 25-30 minutes at room temperature. Next, the plates were washed with PBS+0.05% Tween-20 following standard ELISA protocol, and then TMB substrate (BioFX Laboratories, catalog number TMBW-0100-01) was added to plates. Reactions were stopped after approximately 5 minutes by adding 0.18 M ortho-phosphoric acid to each well and absorbance was read at 450 nm.

B1: TL1A-0372 monovalent bispecific antibody (bispecific antibody, human IgG1, kappa)
heavy 1: QVQLVQSGAEVKKPGASVKVSCKASGYDYTYYGISWVRQAPGQGLEWMGWISTYNTGTHYAPSLQGRVTMTTDTSTSTAYMELRSLRSDDTAVYYCARESYYGSGAFRGGMDVWGQGTTVTVSSASTKGPSVFPLAPSSKSTSGGTAALGCLVKDYFPEPVTVSWNSGALTSGVHTFPAVLQSSGLYSLSSVVTVPSSSLGTQTYICNVNHKPSNTKVDKKVEPKSCDKTHTCPPCPAPEAAGAPSVFLFPPKPKDTLMISRTPEVTCVVVDVSHEDPEVKFNWYVDGVEVHNAKTKPREEQYNSTYRVVSVLTVLHQDWLNGKEYKCKVSNKALPAPIEKTISKAKGQPREPQVCTLPPSREEMTKNQVSLWCLVKGFYPSDIAVEWESNGQPENNYKTTPPVLDSDGSFFLYSKLTVDKSRWQQGNVFSCSVLHEALHSHYTQKSLSLSPGK
heavy 2: not shown
light: not shown
notes: KiH, LS
Human serum albumin [1]
  binding result: no binding (tested: 0.5-1000 nM)
Recombinant mouse TL1A [2]
  fold higher affinity to human TL1A than to this TL1A: ~546 fold
[3]
  fold higher affinity to human TL1A than to this TL1A: ~2 fold
Bovine serum albumin [4]
  binding result: no binding (tested: 0.5-1000 nM)
Recombinant human TL1A [5]
  NF-κB assay in TF-1 reporter cells, neutralization relative to TL1A-0002: ≤ 2 fold

B2: TL1A-0372 (bispecific antibody, human IgG1, kappa)
heavy 1: QVQLVQSGAEVKKPGASVKVSCKASGYDYTYYGISWVRQAPGQGLEWMGWISTYNTGTHYAPSLQGRVTMTTDTSTSTAYMELRSLRSDDTAVYYCARESYYGSGAFRGGMDVWGQGTTVTVSSASTKGPSVFPLAPSSKSTSGGTAALGCLVKDYFPEPVTVSWNSGALTSGVHTFPAVLQSSGLYSLSSVVTVPSSSLGTQTYICNVNHKPSNTKVDKKVEPKSCDKTHTCPPCPAPEAAGAPSVFLFPPKPKDTLMISRTPEVTCVVVDVSHEDPEVKFNWYVDGVEVHNAKTKPREEQYNSTYRVVSVLTVLHQDWLNGKEYKCKVSNKALPAPIEKTISKAKGQPREPQVCTLPPSREEMTKNQVSLWCLVKGFYPSDIAVEWESNGQPENNYKTTPPVLDSDGSFFLYSKLTVDKSRWQQGNVFSCSVLHEALHSHYTQKSLSLSPGK
heavy 2: not shown
light: not shown
notes: monovalent bispecific (null-arm) antibody, IgG1 KiH, LS
Recombinant human TL1A [6]
  Kd: 0.286 nM
  koff: 4.98e-05 s⁻¹
  kon: 174000 M⁻¹ s⁻¹
Recombinant rat TL1A [7]
  Kd: ~1510 nM
Human serum albumin [8]
  binding result: no binding (tested: 1e-6 M)
Recombinant human TL1A [9]
  NFκB Bioassay IC50: 1.47 nM
Recombinant human TL1A [10]
  Kd: 0.54 nM
  koff: 6.21e-05 s⁻¹
  kon: 114000 M⁻¹ s⁻¹
Recombinant mouse TL1A [11]
  Kd: 295 nM
  koff: 0.00708 s⁻¹
  kon: 24000 M⁻¹ s⁻¹
[12]
  Kd: 1.27 nM
  koff: 0.000121 s⁻¹
  kon: 96400 M⁻¹ s⁻¹
Recombinant rat TL1A [13]
  koff: 0.0483 s⁻¹
  kon: 32200 M⁻¹ s⁻¹
Bovine serum albumin [14]
  binding result: no binding (tested: 1e-6 M)

B3: TL1A-0002 (antibody, human IgG1, kappa, V domains shown)
VH: QVQLVQSGAEVKKPGASVKVSCKASGYDFTYYGISWVRQAPGQGLEWMGWISTYNGNTHYARMLQGRVTMTTDTSTRTAYMELRSLRSDDTAVYYCARENYYGSGAYRGGMDVWGQGTTVTVSS
VL: EIVLTQSPATLSLSPGERATLSCRASQSVSSYLAWYQQKPGQAPRLLIYDASNRATGIPARFSGSGSGTDFTLTISSLEPEDFAVYYCQQRSNWPWTFGQGTKVEIKR
notes: human IgG1 effector-function-minimized/kappa; also called parental TL1A-0002
Recombinant human TL1A [15]
  TF-1 NF-κB reporter cell bioassay IC50: 34.7 nM
  TF-1 NF-κB reporter cell bioassay, Bioactivity relative to TL1A-0002: 1 fold
  Whole blood IFNγ assay IC50: 0.83 nM
  Whole blood IFNγ assay, Bioactivity relative to TL1A-0002: 1 fold
[16]
  binding result: binds
Recombinant human TL1A [17]
  Bioactivity relative to TL1A-0002: 1 fold
  IC50: 5 nM

B4: TL1A-0002 (antibody, human IgG1, kappa, V domains shown)
VH: QVQLVQSGAEVKKPGASVKVSCKASGYDFTYYGISWVRQAPGQGLEWMGWISTYNGNTHYARMLQGRVTMTTDTSTRTAYMELRSLRSDDTAVYYCARENYYGSGAYRGGMDVWGQGTTVTVSS
VL: EIVLTQSPATLSLSPGERATLSCRASQSVSSYLAWYQQKPGQAPRLLIYDASNRATGIPARFSGSGSGTDFTLTISSLEPEDFAVYYCQQRSNWPWTFGQGTKVEIKR
notes: human IgG1/kappa, effector function minimized; also called bioTL1A-0002 (biotinylated)
Recombinant human TL1A [18]
  EC50: 5 ng/mL
Recombinant human TL1A [19]
  Bioactivity relative to TL1A-0002: 1 fold
  IC50: 4.5 nM
Recombinant human TL1A [20]
  Bioactivity relative to TL1A-0002: 1 fold
  IC50: 4.5 nM

From patent US20240059799A1 (Pfizer, published 2024)
